Changes are numbered by the printed parent chain. Numbers in names are those of the source.
Assays:
huCTLA4 = huCTLA4 (Homo sapiens, UniProt P16410); experiment: Flow binding to CHO cells stably expressing CTLA4; design: huCTLA4 and huPD-L1, full-length mammalian surface expression constructs were generated; expressed in transfected cells; host or cells: CHO cells, lentiviral transduction, sorted to >98% purity; conditions: for CTLA4 MFI at 33.3 nM: CHO cells stably expressing CTLA4; for CTLA4 Fold change to WT CD80: relative to CD80 WT IgV-Fc
Sequence of huCTLA4 (P16410 36-223): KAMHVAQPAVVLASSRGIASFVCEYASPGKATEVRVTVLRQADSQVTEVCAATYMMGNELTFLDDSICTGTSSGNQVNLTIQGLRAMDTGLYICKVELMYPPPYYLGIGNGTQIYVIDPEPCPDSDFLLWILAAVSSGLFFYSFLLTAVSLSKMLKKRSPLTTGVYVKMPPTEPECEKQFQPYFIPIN
Procedure, shortened: (§1)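 Cells were first blocked in PBS with 1% BSA and 0.1% sodium azide. Primary staining with fusion protein ran 45 min on ice, and secondary staining with PE anti-human Fc at 1:150 ran 30 min on ice.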

CD28 [1] = molecular target: T1, CD28 (Homo sapiens, UniProt P10747); experiment: Jurkat/IL2 + CHO/OKT3 +/- PD-L1 reporter assay: PD-L1-dependent CD28 costimulation; format: cell-based; design: host or cells: Jurkat cells expressing an IL-2-luciferase reporter; conditions: Jurkat/IL2 + CHO/OKT3/PD-L1
Procedure, shortened: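 Readout is relative luminescence from lysed cocultures: test protein given 15 min at room temperature to Jurkat cells before adding CHO artificial APCs displaying OKT3 alone or OKT3 plus PD-L1, then 5 h at 37 °C, 5% CO2.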

CD28 [2] = molecular target: T1, CD28; experiment: Flow binding to Jurkat/IL2 reporter cells (CD28); design: host or cells: Jurkat cells expressing an IL-2-luciferase reporter; conditions: for CD28 Fold change to WT CD80: relative to CD80 WT IgV-Fc
Procedure, shortened: as §1

huPD-L1 = huPD-L1 (Homo sapiens, UniProt Q9NZQ7); experiment: Flow binding to CHO cells stably expressing PD-L1; design: huCTLA4 and huPD-L1, full-length mammalian surface expression constructs were generated; expressed in transfected cells; host or cells: CHO cells, lentiviral transduction, sorted to >98% purity; conditions: Table E10; for PD-L1 MFI at 33.3 nM: CHO cells stably expressing PD-L1; for PD-L1 MFI at 33.3 nM / PD-L1 Fold change to WT CD80: 33.3 nM; for PD-L1 Fold change to WT CD80: relative to CD80 WT IgV-Fc; for Ratio of PDL1:CD28: binding to PD-L1 compared to binding to CD28
Sequence of huPD-L1 (Q9NZQ7 19-290): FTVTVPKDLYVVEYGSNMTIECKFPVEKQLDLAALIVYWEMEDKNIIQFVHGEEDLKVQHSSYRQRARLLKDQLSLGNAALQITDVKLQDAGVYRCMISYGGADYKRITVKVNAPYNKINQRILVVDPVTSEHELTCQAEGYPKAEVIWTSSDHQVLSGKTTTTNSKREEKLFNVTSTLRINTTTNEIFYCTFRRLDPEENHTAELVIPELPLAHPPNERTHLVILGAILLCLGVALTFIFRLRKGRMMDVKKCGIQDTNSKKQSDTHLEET
Procedure, shortened: as §1

[3] = Table E11, Jurkats (CD28), 33.3 nM
[4] = Table E16, consensus variants, 33.3 nM
[5] = Table E16, consensus variants, Jurkats (CD28), 33.3 nM
[6] = Table E23, CD80 IgV-Fc (inert) at 33.3 nM
[7] = Table E23, CD80 IgV-Fc (inert) at 33.3 nM, Jurkat (CD28)
[8] = Table E10, 33.3 nM, Jurkats (CD28)
[9] = Table E20, Jurkats (CD28), 33.3 nM
[10] = Table E19, Jurkats (CD28), 33.3 nM

B1: E35D/M47V/V68M/L85M (protein, UniProt P33681 35-288, looked up, variant E35D M47V V68M L85M)
T-lymphocyte activation …: VIHVTKEVKEVATLSCGHNVSVEELAQTRIYWQKDKKMVLTMMSGDVNIWPEYKNRTIFDITNNLSIMILALRPSDEGTYECVVMKYEKDAFKREHLAEVTLSVKADFPTPSISDFEIPTSNIRRIICSTSGGFPEPHLSWLENGEELNAINTTVSQDPETELYAVSSKLDFNMTTNHSFMCLIKYGHLRVNQTFNWNTTKQEHFPDNLLPSWAITLISVNGIFVICCLTYCFAPRCRERRRNERLRRESVRPV
CTLA4 MFI at 33.3 nM (huCTLA4; Table E11, 33.3 nM): 15997 | Relative Luciferase Units (RLU), CD80 Cone 5.0 nM (CD28 [1]; Table E13, 5.0 nM): 1167 RLU | CD28 MFI at 33.3 nM (CD28 [2]; [3]): 201

B2: H18Y/E35D/M47L/V68M/E95V/L97Q (protein, UniProt P33681 35-288, looked up, variant H18Y E35D M47L V68M E95V L97Q)
T-lymphocyte activation …: B1 T-lymphocyte activation … with H18Y, V47L, M85L, E95V, L97Q
CTLA4 MFI at 33.3 nM (huCTLA4; Table E11, 33.3 nM): 20475 | CTLA4 MFI at 33.3 nM (huCTLA4; [4]): 18022 | Relative Luciferase Units (RLU), CD80 Cone 5.0 nM (CD28 [1]; Table E13, 5.0 nM): 225 RLU | CD28 MFI at 33.3 nM (CD28 [2]; [3]): 14.5 | CD28 MFI at 33.3 nM (CD28 [2]; [5]): 2602

B3: H18Y/E35D/M47V/V68M/L85M (protein, UniProt P33681 35-288, looked up, variant H18Y E35D M47V V68M L85M)
T-lymphocyte activation …: B1 T-lymphocyte activation … with H18Y
CTLA4 MFI at 33.3 nM (huCTLA4; Table E11, 33.3 nM): 18367 | CTLA4 MFI at 33.3 nM (huCTLA4; [4]): 19306 | Relative Luciferase Units (RLU), CD80 Cone 5.0 nM (CD28 [1]; Table E13, 5.0 nM): 1013 RLU | Relative Luciferase Units (RLU), CD80 Cone 5.0 nM (CD28 [1]; Table E17, consensus variants, 5.0 nM): 2575 RLU | CD28 MFI at 33.3 nM (CD28 [2]; [3]): 373 | CD28 MFI at 33.3 nM (CD28 [2]; [5]): 1387

B4: A26P/E35D/M47I/V68M/A71G/D90G (protein, UniProt P33681 35-288, looked up, variant A26P E35D M47I V68M A71G D90G)
T-lymphocyte activation …: B1 T-lymphocyte activation … with A26P, V47I, A71G, M85L, D90G
CTLA4 MFI at 33.3 nM (huCTLA4; [6]): 19761 | Relative Luciferase Units (RLU), CD80 Conc 5.0 nM (CD28 [1]; Table E24, 5.0 nM): 823 RLU | CD28 MFI at 33.3 nM (CD28 [2]; [7]): 8189

B5: H18F/A26P/E35D/M47I/V68M/A71G/D90G (protein, UniProt P33681 35-288, looked up, variant H18F A26P E35D M47I V68M A71G D90G)
T-lymphocyte activation …: B1 T-lymphocyte activation … with H18F, A26P, V47I, A71G, M85L, D90G
CTLA4 MFI at 33.3 nM (huCTLA4; [6]): 23932 | Relative Luciferase Units (RLU), CD80 Conc 5.0 nM (CD28 [1]; Table E24, 5.0 nM): 926 RLU | CD28 MFI at 33.3 nM (CD28 [2]; [7]): 4801

B6: R29C/E35D/M47L/V68M/A71G/L85M (protein, UniProt P33681 35-288, looked up, variant R29C E35D M47L V68M A71G L85M)
T-lymphocyte activation …: B1 T-lymphocyte activation … with R29C, V47L, A71G
modifications: Fc fusion
CTLA4 MFI at 33.3 nM (huCTLA4; Table E11, 33.3 nM): 91 | Relative Luciferase Units (RLU), CD80 Cone 5.0 nM (CD28 [1]; Table E13, 5.0 nM): 155 RLU | CD28 MFI at 33.3 nM (CD28 [2]; [3]): 16

B7: D46V/M47I/A71G (protein)
chain: VIHVTKEVKEVATLSCGHNVSVEELAQTRIYWQKEKKMVLTMMSGVINIWPEYKNRTIFDITNNLSIVILGLRPSDEGTYECVVLKYEKDAFKREHLAEVTLSVKAD
CTLA4 MFI at 33.3 nM (huCTLA4; Table E10, 33.3 nM): 28420 | CTLA4 Fold change to WT CD80 (huCTLA4; Table E10, 33.3 nM): 14.8 | Fold Increase over WT CD80-IgV-Fe (CD28 [1]; Table E12, 5.0 nM): 4.0 | Relative Luciferase Units (RLU), CD80 Cone 5.0 nM (CD28 [1]; Table E12, 5.0 nM): 1601 RLU | PD-L1 MFI at 33.3 nM (huPD-L1): 7328 | PD-L1 Fold change to WT CD80 (huPD-L1): 104.2 | Ratio of PDL1:CD28 (huPD-L1): 6 | CD28 MFI at 33.3 nM (CD28 [2]; [8]): 1325 | CD28 Fold change to WT CD80 (CD28 [2]; Table E10, 33.3 nM): 20.1

B8: M47I/A71G (protein)
chain: B7 chain with V46D
CTLA4 MFI at 33.3 nM (huCTLA4; Table E10, 33.3 nM): 27768 | CTLA4 Fold change to WT CD80 (huCTLA4; Table E10, 33.3 nM): 14.5 | Fold Increase over WT CD80-IgV-Fe (CD28 [1]; Table E12, 5.0 nM): 4.4 | Relative Luciferase Units (RLU), CD80 Cone 5.0 nM (CD28 [1]; Table E12, 5.0 nM): 1762 RLU | PD-L1 MFI at 33.3 nM (huPD-L1): 5097 | PD-L1 Fold change to WT CD80 (huPD-L1): 72.5 | Ratio of PDL1:CD28 (huPD-L1): 6 | CD28 MFI at 33.3 nM (CD28 [2]; [8]): 823 | CD28 Fold change to WT CD80 (CD28 [2]; Table E10, 33.3 nM): 12.5

B9: E35D/M43I/D46E/A71G/L85M (protein)
chain: B7 chain with E35D, M43I, V46E, I47M, L85M
CTLA4 MFI at 33.3 nM (huCTLA4; Table E10, 33.3 nM): 26878 | CTLA4 Fold change to WT CD80 (huCTLA4; Table E10, 33.3 nM): 14.0 | Fold Increase over WT CD80-IgV-Fe (CD28 [1]; Table E12, 5.0 nM): 3.7 | Relative Luciferase Units (RLU), CD80 Cone 5.0 nM (CD28 [1]; Table E12, 5.0 nM): 1475 RLU | PD-L1 MFI at 33.3 nM (huPD-L1): 7138 | PD-L1 Fold change to WT CD80 (huPD-L1): 101.5 | Ratio of PDL1:CD28 (huPD-L1): 36 | CD28 MFI at 33.3 nM (CD28 [2]; [8]): 200 | CD28 Fold change to WT CD80 (CD28 [2]; Table E10, 33.3 nM): 3.0

B10: H18Y/A26E/A71G/D90G (protein)
chain: B7 chain with H18Y, A26E, V46D, I47M, D90G
CTLA4 MFI at 33.3 nM (huCTLA4; Table E20, 33.3 nM): 19878 | Relative Luciferase Units (RLU), CD80 Conc 5.0 nM (CD28 [1]; Table E22, CD80 Conc 5.0 nM): 933 RLU | CD28 MFI at 33.3 nM (CD28 [2]; [9]): 2001

B11: M47V/V68M/K89N (protein)
chain: B7 chain with V46D, I47V, V68M, G71A, K89N
CTLA4 MFI at 33.3 nM (huCTLA4; Table E19, 33.3 nM): 24787 | Relative Luciferase Units (RLU), CD80 Conc 5.0 nM (CD28 [1]; Table E21, CD80 Conc 5.0 nM): 862 RLU | CD28 MFI at 33.3 nM (CD28 [2]; [10]): 1324

B12: E35D/M47V/K89N (protein)
chain: B7 chain with E35D, V46D, I47V, G71A, K89N
CTLA4 MFI at 33.3 nM (huCTLA4; Table E19, 33.3 nM): 39282 | Relative Luciferase Units (RLU), CD80 Conc 5.0 nM (CD28 [1]; Table E21, CD80 Conc 5.0 nM): 668 RLU | CD28 MFI at 33.3 nM (CD28 [2]; [10]): 507

B13: E35D/V68M/A71G/D90G (protein)
chain: B7 chain with E35D, V46D, I47M, V68M, D90G
CTLA4 MFI at 33.3 nM (huCTLA4; Table E20, 33.3 nM): 23290 | Relative Luciferase Units (RLU), CD80 Conc 5.0 nM (CD28 [1]; Table E22, CD80 Conc 5.0 nM): 990 RLU | CD28 MFI at 33.3 nM (CD28 [2]; [9]): 2843

B14: E35D/N48K/V68M (protein)
chain: B7 chain with E35D, V46D, I47M, N48K, V68M, G71A
CTLA4 MFI at 33.3 nM (huCTLA4; Table E19, 33.3 nM): 33583 | Relative Luciferase Units (RLU), CD80 Conc 5.0 nM (CD28 [1]; Table E21, CD80 Conc 5.0 nM): 721 RLU | CD28 MFI at 33.3 nM (CD28 [2]; [10]): 642

B15: V22D/E24D/E35D/M47V/V68M (protein)
chain: VIHVTKEVKEVATLSCGHNVSDEDLAQTRIYWQKDKKMVLTMMSGDVNIWPEYKNRTIFDITNNLSIMILALRPSDEGTYECVVLKYEKDAFKREHLAEVTLSVKADFPTPSISDFETPTSNIRRIICSTSGGFPEPHLSWLENGEELNAINTTVSQDPETELYAVSSKLDFNMTTNHSFMCLIKYGHLRVNQTFNWNTTKQEHFPDN
modifications: CD80 v385 ECD
CTLA4 MFI at 33.3 nM (huCTLA4; Table E11, 33.3 nM): 16899 | Relative Luciferase Units (RLU), CD80 Cone 5.0 nM (CD28 [1]; Table E13, 5.0 nM): 1023 RLU | CD28 MFI at 33.3 nM (CD28 [2]; [3]): 191
